According to paper PMC10020564, “Distinct inter-domain interactions of dimeric versus monomeric α-catenin link cell junctions to filaments” (Communications Biology, 2023):

B1: human α-catenin Δ1–81 (domain or fragment, UniProt P35221 82-906, looked up)
chain: ESQFLKEELVAAVEDVRKQGDLMKAAAGEFADDPCSSVKRGNMVRAARALLSAVTRLLILADMADVYKLLVQLKVVEDGILKLRNAGNEQDLGIQYKALKPEVDKLNIMAAKRQQELKDVGHRDQMAAARGILQKNVPILYTASQACLQHPDVAAYKANRDLIYKQLQQAVTGISNAAQATASDDASQHQGGGGGELAYALNNFDKQIIVDPLSFSEERFRPSLEERLESIISGAALMADSSCTRDDRRERIVAECNAVRQALQDLLSEYMGNAGRKERSDALNSAIDKMTKKTRDLRRQLRKAVMDHVSDSFLETNVPLLVLIEAAKNGNEKEVKEYAQVFREHANKLIEVANLACSISNNEEGVKLVRMSASQLEALCPQVINAALALAAKPQSKLAQENMDLFKEQWEKQVRVLTDAVDDITSIDDFLAVSENHILEDVNKCVIALQEKDVDGLDRTAGAIRGRAARVIHVVTSEMDNYEPGVYTEKVLEATKLLSNTVMPRFTEQVEAAVEALSSDPAQPMDENEFIDASRLVYDGIRDIRKAVLMIRTPEELDDSDFETEDFDVRSRTSVQTEDDQLIAGQSARAIMAQLPQEQKAKIAEQVASFQEEKSKLDAEVSKWDDSGNDIIVLAKQMCMIMMEMTDFTRGKGPLKNTSDVISAAKKIAEAGSRMDKLGRTIADHCPDSACKQDLLAYLQRIALYCHQLNICSKVKAEVQNLGGELVVSGVDSAMSLIQAAKNLMNAVVQTVKASYVASTKYQKSQGMASLNLPAVSWKMKAPEKKPLVKREKQDETQTKIKRASQKKHVNPVQALSEFKAMDSI
notes: also called human dimeric α-catenin Δ1–81; human monomeric α-catenin Δ1–81; source: E. coli BL21(DE3) (said of all α-catenin constructs)
B2: human α-catenin (residues 22–906) (domain or fragment, UniProt P35221 22-906, looked up)
chain: TLAVERLLEPLVTQVTTLVNTNSKGPSNKKRGRSKKAHVLAASVEQATENFLEKGDKIAKESQFLKEELVAAVEDVRKQGDLMKAAAGEFADDPCSSVKRGNMVRAARALLSAVTRLLILADMADVYKLLVQLKVVEDGILKLRNAGNEQDLGIQYKALKPEVDKLNIMAAKRQQELKDVGHRDQMAAARGILQKNVPILYTASQACLQHPDVAAYKANRDLIYKQLQQAVTGISNAAQATASDDASQHQGGGGGELAYALNNFDKQIIVDPLSFSEERFRPSLEERLESIISGAALMADSSCTRDDRRERIVAECNAVRQALQDLLSEYMGNAGRKERSDALNSAIDKMTKKTRDLRRQLRKAVMDHVSDSFLETNVPLLVLIEAAKNGNEKEVKEYAQVFREHANKLIEVANLACSISNNEEGVKLVRMSASQLEALCPQVINAALALAAKPQSKLAQENMDLFKEQWEKQVRVLTDAVDDITSIDDFLAVSENHILEDVNKCVIALQEKDVDGLDRTAGAIRGRAARVIHVVTSEMDNYEPGVYTEKVLEATKLLSNTVMPRFTEQVEAAVEALSSDPAQPMDENEFIDASRLVYDGIRDIRKAVLMIRTPEELDDSDFETEDFDVRSRTSVQTEDDQLIAGQSARAIMAQLPQEQKAKIAEQVASFQEEKSKLDAEVSKWDDSGNDIIVLAKQMCMIMMEMTDFTRGKGPLKNTSDVISAAKKIAEAGSRMDKLGRTIADHCPDSACKQDLLAYLQRIALYCHQLNICSKVKAEVQNLGGELVVSGVDSAMSLIQAAKNLMNAVVQTVKASYVASTKYQKSQGMASLNLPAVSWKMKAPEKKPLVKREKQDETQTKIKRASQKKHVNPVQALSEFKAMDSI
notes: Modified pET28 vector; By the printed forward primer the residues GPHM would remain before T22 after PreScission cleavage (surmise); The dimer was used for the complex with F-actin; in the map only residues 710–871 are ordered; also called Δ1–21 α-catenin; human dimeric α-catenin Δ1–21; source: E. coli BL21(DE3), purified (HisTrap, PreScission cleavage, reverse HisTrap, Superdex S200); not shown: …
B3: full-length human α-catenin (residues 1–906) (natural protein, UniProt P35221 1-906, looked up)
chain: MTAVHAGNINFKWDPKSLEIRTLAVERLLEPLVTQVTTLVNTNSKGPSNKKRGRSKKAHVLAASVEQATENFLEKGDKIAKESQFLKEELVAAVEDVRKQGDLMKAAAGEFADDPCSSVKRGNMVRAARALLSAVTRLLILADMADVYKLLVQLKVVEDGILKLRNAGNEQDLGIQYKALKPEVDKLNIMAAKRQQELKDVGHRDQMAAARGILQKNVPILYTASQACLQHPDVAAYKANRDLIYKQLQQAVTGISNAAQATASDDASQHQGGGGGELAYALNNFDKQIIVDPLSFSEERFRPSLEERLESIISGAALMADSSCTRDDRRERIVAECNAVRQALQDLLSEYMGNAGRKERSDALNSAIDKMTKKTRDLRRQLRKAVMDHVSDSFLETNVPLLVLIEAAKNGNEKEVKEYAQVFREHANKLIEVANLACSISNNEEGVKLVRMSASQLEALCPQVINAALALAAKPQSKLAQENMDLFKEQWEKQVRVLTDAVDDITSIDDFLAVSENHILEDVNKCVIALQEKDVDGLDRTAGAIRGRAARVIHVVTSEMDNYEPGVYTEKVLEATKLLSNTVMPRFTEQVEAAVEALSSDPAQPMDENEFIDASRLVYDGIRDIRKAVLMIRTPEELDDSDFETEDFDVRSRTSVQTEDDQLIAGQSARAIMAQLPQEQKAKIAEQVASFQEEKSKLDAEVSKWDDSGNDIIVLAKQMCMIMMEMTDFTRGKGPLKNTSDVISAAKKIAEAGSRMDKLGRTIADHCPDSACKQDLLAYLQRIALYCHQLNICSKVKAEVQNLGGELVVSGVDSAMSLIQAAKNLMNAVVQTVKASYVASTKYQKSQGMASLNLPAVSWKMKAPEKKPLVKREKQDETQTKIKRASQKKHVNPVQALSEFKAMDSI
notes: Cloned into pGEX-6P-1; residues of the PreScission site may remain at the N-terminus after cleavage; The same protein elutes as a monomer peak and a dimer peak, which were pooled separately; also called human monomeric α-catenin; human dimeric α-catenin; source: E. coli BL21(DE3), purified (GST Sepharose, PreScission cleavage, Superdex S200; monomer and dimer peaks pooled separately); not shown: …

Target: the molecule itself
Assay: SEC-MALS; separately pooled dimer peak of a size exclusion run; Superdex S200 10/300 GL, 20 mM Tris-HCl pH 8, 150 mM NaCl, 0.2 mM TCEP, 0.5 ml/min

Stoichiometry N, 2:
B1, B2, B3
